Test [1] has as its target Human CLDN18.2 (human). In words: cell-based or functional assay.
Test [2] addresses Human CLDN18.2 (human). In words: cell-based or functional assay. The source holds these as a separate data set.
Test [3] has as its target T1, Human CLDN18.2 (human).
T1 construct: the cell line is named under assay; also called hCLDN18.2; human CLDN18.2 antigen
The experiment in a line: flow cytometry, NUGC4-hCLDN18.2 cells. Background: A flow cytometer gives signals particle by particle.
Description: (§1) NUGC4 and NUGC4-hCLDN18.2 cells were cultured, digested with pancreatin and centrifuged to collect cells. The cells were collected and resuspended in buffer (PBS+1% FBS) at 1×10⁴ cells/well in a 96-well plate at 100 μL per well. Then the mixture was centrifuged at 350×g for 5 min, and the supernatant was removed.

The target of test [4] is T1, Human CLDN18.2. The experiment in a line: flow cytometry, NUGC4 cells (endogenous CLDN18.2).
Description: as §1
Another test concerns the target T2, Human CLDN18.1 (human, UniProt P56856 1-261).
T2 construct: also called hCLDN18.1
The experiment in a line: flow cytometry, 293T-hCLDN18.1 cells.

Test [5] concerns the target T1, Human CLDN18.2. The experiment in a line: flow cytometry, NUGC4-hCLDN18.2 cells. The source holds these as a separate data set.
Description: as §1
Test [6] concerns the target T1, Human CLDN18.2. In words: cell-based or functional assay. This is another data set of the same source.
For another test, the target named is T3, human CD3 antigen (human, UniProt P07766 23-126).
T3 construct: also called Human CD3ϵ
In words: SPR (Biacore T200), human CD3 antigen amine-coupled on CM5 chip, 1:1 fit.

Bounds are passed on as bounds.

Description for human CD3 antigen: After the detection was completed, data fitting was carried out on the result pattern by adopting Biacore T200 Evaluation Software in a 1:1 binding fitting mode to obtain an equilibrium dissociation constant (KD).

B1: bispecific antibody CS5 (bispecific antibody, human IgG1, kappa)
light: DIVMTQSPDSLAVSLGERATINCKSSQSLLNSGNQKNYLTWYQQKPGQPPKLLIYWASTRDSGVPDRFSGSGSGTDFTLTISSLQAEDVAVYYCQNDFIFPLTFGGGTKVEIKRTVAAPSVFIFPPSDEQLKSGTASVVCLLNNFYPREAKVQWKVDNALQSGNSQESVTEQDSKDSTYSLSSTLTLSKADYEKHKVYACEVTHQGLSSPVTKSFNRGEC
heavy 1: QVQLQESGPGLVKPSETLSLTCTVSGFSLTRYGVSWIRQPPGKGLEWIGVIWGEGNTNYNPSLKSRVTISKDSSKSQVSLKLSSVTAADTAVYYCARVNFGNALDYWGQGTLVTVSSASTKGPSVFPLAPSSKSTSGGTAALGCLVKDYFPEPVTVSWNSGALTSGVHTFPAVLQSSGLYSLSSVVTVPSSSLGTQTYICNVNHKPSNTKVDKKVEPKSCDKTHTCPPCPAPPVAGPSVFLFPPKPKDTLMISRTPEVTCVVVDVSHEAPEVQFNWYVDGVEVHNAKTKPREEQFNSTFRVVSVLTVVHQDWLNGKEYKCKVSNKGLPAPIEKTISKTKGQPREPQVYTLPPCRDELTKNQVSLWCLVKGFYPSDIAVEWESNGQPENNYKTTPPVLDSDGSFFLYSKLTVDKSRWQQGNVFSCSVMHEALHNHYTQKSLSLSPGK
heavy 2: QVQLQESGPGLVKPSETLSLTCTVSGFSLTRYGVSWIRQPPGKGLEWIGVIWGEGNTNYNPSLKSRVTISKDSSKSQVSLKLSSVTAADTAVYYCARVNFGNALDYWGQGTLVTVSSASTKGPSVFPLAPSSKSTSGGTAALGCLVKDYFPEPVTVSWNSGALTSGVHTFPAVLQSSGLYSLSSVVTVPSSSLGTQTYICNVNHKPSNTKVDKKVEPKSCDKTHTAPAPAPAPAPAPAPAPQVQLVESGGGVVQPGRSLRLSCAASGFTFSTYAMNWVRQAPGKGLEWVARIRSKYNNYATYYADSVKDRFTISRDDSKNTLYLQMNSLRAEDTAVYYCARHGNFGNSYVSWAAYWGQGTLVTVSSGGGGSGGGGSGGGGSQTVVTQEPSLTVSPGGTVTLTCRSSTGAVTTSNYANWFQQKPGQAPRGLIGGTNKRAPGVPARFSGSLLGGKAALTLSGVQPEDEAEYYCALWYSNLWVFGGGTKVEIKGGGGSDKTHTCPPCPAPPVAGPSVFLFPPKPKDTLMISRTPEVTCVVVDVSHEAPEVQFNWYVDGVEVHNAKTKPREEQFNSTFRVVSVLTVVHQDWLNGKEYKCKVSNKGLPAPIEKTISKTKGQPREPQVCTLPPSRDELTKNQVSLSCAVKGFYPSDIAVEWESNGQPENNYKTTPPVLDSDGSFFLVSKLTVDKSRWQQGNVFSCSVMHEALHNHYTQKSLSLSPGK
notes: CSBODY structure: two 2C6.9 Fab arms; second heavy chain (first heavy entry) and first heavy chain with anti-CD3 scFv (2a5ga) between CH1 and Fc2
Turning to B1, in the test with Human CLDN18.2 [1], the “Induction of expression of CD25 EC50 (pM), NUGC4” value came to 481 pM; the “Induction of expression of CD25 EC50 (pM), NUGC4-hCLDN18.2” value came out at 142 pM; the “Induction of expression of CD69 EC50 (pM), NUGC4” value was 141 pM; the “Induction of expression of CD69 EC50 (pM), NUGC4-hCLDN18.2” value was 70.5 pM. Moreover, in the test with Human CLDN18.2 [2], the “EC50 (pM), in vitro killing by hPBMC, NUGC4-hCLDN18.2 cells” value is 132 pM and the “EC50 (pM), in vitro killing by hPBMC, NUGC4 cells” value was 433 pM. The molecule further displayed a concentration giving a half-maximal response (EC50) in the test with Human CLDN18.2 [3] of 18.2 nM. This molecule also had an EC50 with Human CLDN18.2 [4] of 25.7 nM.

B2: bispecific antibody Y8 (bispecific antibody, human IgG1, kappa)
light: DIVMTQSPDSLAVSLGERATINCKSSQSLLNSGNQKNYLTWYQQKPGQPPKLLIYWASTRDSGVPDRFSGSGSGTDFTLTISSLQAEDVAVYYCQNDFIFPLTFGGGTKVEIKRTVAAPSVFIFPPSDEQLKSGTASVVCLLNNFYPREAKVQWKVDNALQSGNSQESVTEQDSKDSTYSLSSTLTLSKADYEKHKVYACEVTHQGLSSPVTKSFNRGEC
heavy: QVQLQESGPGLVKPSETLSLTCTVSGFSLTRYGVSWIRQPPGKGLEWIGVIWGEGNTNYNPSLKSRVTISKDSSKSQVSLKLSSVTAADTAVYYCARVNFGNALDYWGQGTLVTVSSASTKGPSVFPLAPSSKSTSGGTAALGCLVKDYFPEPVTVSWNSGALTSGVHTFPAVLQSSGLYSLSSVVTVPSSSLGTQTYICNVNHKPSNTKVDKKVEPKSCDKTHTCPPCPAPPVAGPSVFLFPPKPKDTLMISRTPEVTCVVVDVSHEAPEVQFNWYVDGVEVHNAKTKPREEQFNSTFRVVSVLTVVHQDWLNGKEYKCKVSNKGLPAPIEKTISKTKGQPREPQVYTLPPCRDELTKNQVSLWCLVKGFYPSDIAVEWESNGQPENNYKTTPPVLDSDGSFFLYSKLTVDKSRWQQGNVFSCSVMHEALHNHYTQKSLSLSPGK
chain: not shown
notes: YBODY structure: anti-CLDN18.2 Fab arm (2C6.9) and second monomer anti-CD3 scFv (L2K)-Fc
Take B2: in the test with Human CLDN18.2 [1], the “Induction of expression of CD25 EC50 (pM), NUGC4” value was found to be 182 pM; the “Induction of expression of CD25 EC50 (pM), NUGC4-hCLDN18.2” value was determined as 16.5 pM; the “Induction of expression of CD69 EC50 (pM), NUGC4” value turned out to be 33.3 pM; the “Induction of expression of CD69 EC50 (pM), NUGC4-hCLDN18.2” value worked out at 2.98 pM. In the test with Human CLDN18.2 [2], the “EC50 (pM), in vitro killing by hPBMC, NUGC4-hCLDN18.2 cells” value was 4.09 pM and the “EC50 (pM), in vitro killing by hPBMC, NUGC4 cells” value turned out to be 57.8 pM. The EC50 with Human CLDN18.2 [3] worked out at 46.9 nM. In addition, in the test with Human CLDN18.2 [4], a half-maximal response (EC50) required 75.1 nM.

B3: bispecific antibody CS9 (bispecific antibody, human IgG1, kappa)
light: DIVMTQSPSSLTVTAGEKVTMSCKSSQSLLNSGNQKNYLTWYQQKPGQPPKLLIYWASTRESGVPDRFTGSGSGTDFTLTISSVQAEDLAVYYCQNDYSYPFTFGSGTKLEIKRTVAAPSVFIFPPSDEQLKSGTASVVCLLNNFYPREAKVQWKVDNALQSGNSQESVTEQDSKDSTYSLSSTLTLSKADYEKHKVYACEVTHQGLSSPVTKSFNRGEC
heavy 1: QVQLQQPGAELVRPGASVKLSCKASGYTFTSYWINWVKQRPGQGLEWIGNIYPSDSYTNYNQKFKDKATLTVDKSSSTAYMQLSSPTSEDSAVYYCTRSWRGNSFDYWGQGTTLTVSSASTKGPSVFPLAPSSKSTSGGTAALGCLVKDYFPEPVTVSWNSGALTSGVHTFPAVLQSSGLYSLSSVVTVPSSSLGTQTYICNVNHKPSNTKVDKKVEPKSCDKTHTCPPCPAPPVAGPSVFLFPPKPKDTLMISRTPEVTCVVVDVSHEAPEVQFNWYVDGVEVHNAKTKPREEQFNSTFRVVSVLTVVHQDWLNGKEYKCKVSNKGLPAPIEKTISKTKGQPREPQVYTLPPCRDELTKNQVSLWCLVKGFYPSDIAVEWESNGQPENNYKTTPPVLDSDGSFFLYSKLTVDKSRWQQGNVFSCSVMHEALHNHYTQKSLSLSPGK
heavy 2: not shown
notes: CSBODY structure: two 175D10 Fab arms; second heavy chain (first heavy entry) and first heavy chain with anti-CD3 scFv (L2K) between CH1 and Fc2
B3: the binding result with Human CLDN18.1 was “no binding”. In the test with Human CLDN18.2 [5], this molecule showed a 50% effective concentration (EC50) of less than 50 nM. Also, the “EC50 value for killing effect on NUGC4-hCLDN18.2 cells” value in the test with Human CLDN18.2 [6] is less than 0.01 nM.

B4: bispecific antibody Y1 (bispecific antibody, human IgG1, kappa)
light: DIVMTQSPSSLTVTAGEKVTMSCKSSQSLLNSGNQKNYLTWYQQKPGQPPKLLIYWASTRESGVPDRFTGSGSGTDFTLTISSVQAEDLAVYYCQNDYSYPFTFGSGTKLEIKRTVAAPSVFIFPPSDEQLKSGTASVVCLLNNFYPREAKVQWKVDNALQSGNSQESVTEQDSKDSTYSLSSTLTLSKADYEKHKVYACEVTHQGLSSPVTKSFNRGEC
heavy: QVQLQQPGAELVRPGASVKLSCKASGYTFTSYWINWVKQRPGQGLEWIGNIYPSDSYTNYNQKFKDKATLTVDKSSSTAYMQLSSPTSEDSAVYYCTRSWRGNSFDYWGQGTTLTVSSASTKGPSVFPLAPSSKSTSGGTAALGCLVKDYFPEPVTVSWNSGALTSGVHTFPAVLQSSGLYSLSSVVTVPSSSLGTQTYICNVNHKPSNTKVDKKVEPKSCDKTHTCPPCPAPPVAGPSVFLFPPKPKDTLMISRTPEVTCVVVDVSHEAPEVQFNWYVDGVEVHNAKTKPREEQFNSTFRVVSVLTVVHQDWLNGKEYKCKVSNKGLPAPIEKTISKTKGQPREPQVYTLPPCRDELTKNQVSLWCLVKGFYPSDIAVEWESNGQPENNYKTTPPVLDSDGSFFLYSKLTVDKSRWQQGNVFSCSVMHEALHNHYTQKSLSLSPGK
chain: QVQLVESGGGVVQPGRSLRLSCAASGFTFSTYAMNWVRQAPGKGLEWVARIRSKYNNYATYYADSVKDRFTISRDDSKNTLYLQMNSLRAEDTAVYYCARHGNFGNSYVSWAAYWGQGTLVTVSSGGGGSGGGGSGGGGSQTVVTQEPSLTVSPGGTVTLTCRSSTGAVTTSNYANWFQQKPGQAPRGLIGGTNKRAPGVPARFSGSLLGGKAALTLSGVQPEDEAEYYCALWYSNLWVFGGGTKVEIKGRGRGSDKTHTCPPCPAPPVAGPSVFLFPPKPKDTLMISRTPEVTCVVVDVSHEAPEVQFNWYVDGVEVHNAKTKPREEQFNSTFRVVSVLTVVHQDWLNGKEYKCKVSNKGLPAPIEKTISKTKGQPREPQVCTLPPSRDELTKNQVSLSCAVKGFYPSDIAVEWESNGQPENNYKTTPPVLDSDGSFFLVSKLTVDKSRWQQGNVFSCSVMHEALHNHYTQKSLSLSPGK
notes: YBODY structure: anti-CLDN18.2 Fab arm (175D10) and second monomer anti-CD3 scFv (2a5ga)-Fc
In the test with human CD3 antigen, B4 came in with a dissociation constant Kd of 1980 nM.

B5: Anti-CLDN18.2 monoclonal antibody 2C6.9 (antibody, human IgG1, kappa, V domains shown)
VH: QVQLQESGPGLVKPSETLSLTCTVSGFSLTRYGVSWIRQPPGKGLEWIGVIWGEGNTNYNPSLKSRVTISKDSSKSQVSLKLSSVTAADTAVYYCARVNFGNALDYWGQGTLVTVSS
VL: DIVMTQSPDSLAVSLGERATINCKSSQSLLNSGNQKNYLTWYQQKPGQPPKLLIYWASTRDSGVPDRFSGSGSGTDFTLTISSLQAEDVAVYYCQNDFIFPLTFGGGTKVEIKR
notes: prepared by Wuhan YZY Biopharma
Take B5: the binding result with Human CLDN18.1 is on record as “no binding (tested: 1000 nM)”.

B6: anti-CLDN18.2 monoclonal antibody 1E9.2 (antibody, human IgG1, kappa, V domains shown)
VH: EVQLVESGGGLVKPGGSLRLSCAASGFSFSNSAMSWVRQAPGKGLEWVSTISSGDSYTYYADSVKGRFTISRDNAKNSLYLQMNSLRAEDTAVYYCARQGYGNALDYWGQGTLVTVSS
VL: DIVMTQSPDSLAVSLGERATINCKSSQSLLNSGNQKNYLTWYQQKPGQPPKLLIYWSSTRESGVPDRFSGSGSGTDFTLTISSLQAEDFAVYYCQNDYYYPLTFGGGTKVEIKR
notes: as for B5
Regarding B6, the binding result with Human CLDN18.1 is “no binding (tested: 1000 nM)”.

B7: IMAB362 monoclonal antibody (antibody, human IgG1, kappa, V domains shown)
VH: QVQLQQPGAELVRPGASVKLSCKASGYTFTSYWINWVKQRPGQGLEWIGNIYPSDSYTNYNQKFKDKATLTVDKSSSTAYMQLSSPTSEDSAVYYCTRSWRGNSFDYWGQGTTLTVSS
VL: DIVMTQSPSSLTVTAGEKVTMSCKSSQSLLNSGNQKNYLTWYQQKPGQPPKLLIYWASTRESGVPDRFTGSGSGTDFTLTISSVQAEDLAVYYCQNDYSYPFTFGSGTKLEIKR
notes: prepared by Wuhan YZY Biopharma; also called Anti-CLDN18.2 monoclonal antibody IMAB362
Regarding B7, in the test with Human CLDN18.2 [5], the EC50 was 10.8 nM.

In general, EC50 refers to the concentration needed to bring the measured effect to its halfway point. Higher therefore signals a less potent agent. By Kd is commonly meant the constant that tells how readily two partners part at equilibrium.
